In the emibetuzumab library of Makowski et al. (2022) one finds non-specific binding call data, which are given here for 117 variants.

Sequences and labels used below:
B1: VH:VL chains; a variant is named by its letters at X, in order (parent)
chain 1: QVQLVQSGAEVKKPGASVKVSCKASGYTFTDYXMHWVRQAPGQGLEWMGXVNPNXXXTTYNQKFEGRVTMTTDTSTSTAYMELRSLRSDDTAVYYCARXNXLDXWGQGTTVTVSS
chain 2: DIQMTQSPSSLSASVGDRVTITCSVSSSVSSIYLHWYQQKPGKAPKLLIYSTSNLASGVPSRFSGSGSGTDFTLTISSLQPEDFATYYCQVYSGYPLTFGGGTKVEIK

This data set covers variants of B1. Put plainly: yeast display scFab, FACS + sequencing. The essentials:
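The non-specific binding call was based on sorted and sequenced yeast displaying a heavy-chain CDR mutant scFab library. Labelling used anti-Myc with biotinylated ovalbumin (260 μg/mL in PBSB, 3 h, room temperature) or soluble membrane proteins (130 μg/mL, 20 min on ice), and FACS collected the top 25% and bottom 10% of binders in two replicates. Positive meant present in ≥3 of 4 pooled positive samples and in no negatives, and negative meant the converse.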
For DRGRDAWF, the non-specific binding call is listed as “no binding”.
With DTTKGDGS the entry was “no binding”; with YRRGSAVA, “binds”; with VAGTGDWD, “no binding”.
Turning to FRGEGAAD, the non-specific binding call is on record as “binds”.
For the variant VGGGADGA, the non-specific binding call is recorded as “no binding”.
As for YRKGGAVD, the entry is “binds”.
With VAGTGDGY the entry was “no binding”.
Take VAGGDAVV: the non-specific binding call was “no binding”.
As for YRRRGSAS, the entry is “binds”; as for YRRGDSGV, “binds”.
Turning to AATRNVGV, the non-specific binding call is reported as “binds”.
With FTKASYVY the entry was “binds”; with YARETAGV, “binds”; with VRTGGAAA, “binds”.
For the variant YRRRGSLS, the non-specific binding call was “binds”.
As for YKRESSSV, the entry is “binds”; as for YEKGGDVD, “no binding”.
Turning to ATATADWA, the non-specific binding call is “no binding”.
As for FTGRGAGV, the entry is “binds”.
On to VTGEDDAV, for which the non-specific binding call was “no binding”.
For the variant YRTRSAWD, the non-specific binding call is “binds”.
Consider YRGAGSGY, for which the non-specific binding call is reported as “binds”.
As for YRGAGSGV, the non-specific binding call is “binds”.
As to YRGGDDLV, the non-specific binding call is on record as “no binding”.
As for DKEGGDVA, the non-specific binding call is on record as “no binding”.
With YRAGGAAF, the non-specific binding call was “binds”.
With YAEGGYGV chain 1 V68I, the non-specific binding call was “binds”.
As to VRGTDAGV, the non-specific binding call was “no binding”.
For YAGTGAVA, the non-specific binding call is “no binding”.
In the case of YTGTSSLD, the non-specific binding call was “no binding”.
With DGTGGSGA chain 1 R67H the entry was “no binding”.
For the variant ATGANAAV, the non-specific binding call is reported as “no binding”.
With DKEEDSLA the entry was “no binding”; with YKGGGYGA, “binds”.
With SGRGNALD, the non-specific binding call is reported as “no binding”.
Regarding FRAEGSLD, the non-specific binding call is “binds”.
Turning to VAKADALD, the non-specific binding call is “no binding”.
Turning to YRGGGDWV, the non-specific binding call is reported as “no binding”.
With ATGRAAGD, the non-specific binding call is “no binding”.
As to DEGGGSSA, the non-specific binding call is “no binding”.
For the variant VRGRGVAV, the non-specific binding call is on record as “binds”.
As to AKAGGASD, the non-specific binding call is reported as “binds”.
As for AETKGALD, the entry is “no binding”; as for VRGRDDGV, “no binding”.
Regarding YTGGDDVY, the non-specific binding call is listed as “no binding”.
As for YRKGGFSS, the entry is “binds”; as for DEGGTDGV, “no binding”; as for VEEEGDWV, “no binding”.
For the variant SREEGFSV, the non-specific binding call was “no binding”.
With DRERGDGY, the non-specific binding call is recorded as “no binding”.
Take DAGAADGA: the non-specific binding call is given as “no binding”.
With FRGKGASS, the non-specific binding call is reported as “binds”.
As for FRGKGASV, the entry is “binds”.
For the variant YRRAADSD, the non-specific binding call was “binds”.
With DEGGTSAD the entry was “no binding”; with DAGEAAGD, “no binding”.
With DAGGGDWV the entry was “no binding”; with VRGRGDLA, “no binding”; with FAGGGDWV, “no binding”.
VRTRSFGA: the non-specific binding call is on record as “binds”.
Consider FEKEADAF, for which the non-specific binding call is “binds”.
With FRGKSAAA the entry was “binds”.
As for YRARGAVA, the entry is “binds”; as for YKRRDAWV, “binds”.
With YAGKDDWV, the non-specific binding call is given as “no binding”.
Turning to FTGGDALA, the non-specific binding call is “no binding”.
As for VTRGADGV, the entry is “no binding”; as for DREEGDWA, “no binding”.
On to YKTRGSAA, for which the non-specific binding call is given as “binds”.
With YRARSAAD, the non-specific binding call is “binds”.
As to YRGRGYSV, the non-specific binding call is listed as “binds”.
Consider YTAAADLV, for which the non-specific binding call is recorded as “binds”.
With YRGGGSVF the entry was “binds”; with FKEGNSLD, “no binding”; with VKGGSFGS, “binds”.
As for FRGKGSAV, the entry is “binds”; as for FRGRDDLV, “no binding”; as for DTGGSASA, “no binding”.
In the case of DAKEGAGD, the non-specific binding call is reported as “no binding”.
Take YKGRGDWY: the non-specific binding call is given as “binds”.
Take VKEKGAWV: the non-specific binding call was “binds”.
In the case of YGGRGAVA, the non-specific binding call is reported as “no binding”.
Regarding YRGESAVD, the non-specific binding call is recorded as “binds”.
In the case of DTREGAVV, the non-specific binding call is recorded as “no binding”.
For DAGGADGV, the non-specific binding call is “no binding”.
Regarding DAGGGSSS, the non-specific binding call is “no binding”.
DEGTGALA: the non-specific binding call is “no binding”.
On to SAGTGSWD, for which the non-specific binding call is “no binding”.
DAGAADAV: the non-specific binding call is “no binding”.
As to FRGRGALS, the non-specific binding call is listed as “binds”.
Consider VAKENAVA, for which the non-specific binding call was “no binding”.
As to YRAKGAVV, the non-specific binding call is “binds”.
For the variant YKGRGVGV, the non-specific binding call is “binds”.
As for VETKGDWD, the non-specific binding call is “no binding”.
In the case of ATGGDDWF, the non-specific binding call is “no binding”.
As for FTGGASGV chain 1 V111I, the entry is “no binding”; as for YRRRGFGY, “binds”; as for SKAGDAWY, “binds”.
As for YAEKDFGV, the entry is “no binding”.
Regarding DRGGSAGD, the non-specific binding call is listed as “no binding”.
Consider FRGKGAAA, for which the non-specific binding call is listed as “binds”.
As to FRGRGSAD, the non-specific binding call was “binds”.
As to FRAGGSVD, the non-specific binding call was “binds”.
Consider DRGGGDGV, for which the non-specific binding call is reported as “no binding”.
Take YAAGGDVA: the non-specific binding call is “no binding”.
For FKEGGSAA, the non-specific binding call is listed as “binds”.
Consider VKGRSDVY, for which the non-specific binding call is “no binding”.
As for ATTKSDAA, the entry is “no binding”; as for VTAGSDAV, “no binding”.
Regarding YRAGGDWY, the non-specific binding call was “binds”.
In the case of FRGEAVVY, the non-specific binding call is “binds”.
On to YKAKGASV, for which the non-specific binding call is “binds”.
With STKAASWV, the non-specific binding call is given as “no binding”.
With DGTGGAGA the entry was “no binding”; with YKKGGSLA, “binds”.
Consider YRGRDSWD, for which the non-specific binding call is “binds”.
